In article PMC12416549 (2024):

Target: T1, TNFR1 (Homo sapiens, UniProt P19438)
T1 chain: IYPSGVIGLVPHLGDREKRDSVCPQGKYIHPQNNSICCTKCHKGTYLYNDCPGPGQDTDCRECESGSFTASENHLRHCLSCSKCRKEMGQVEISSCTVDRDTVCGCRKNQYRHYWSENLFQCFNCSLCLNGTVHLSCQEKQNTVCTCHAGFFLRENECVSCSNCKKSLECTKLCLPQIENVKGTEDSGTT
Assay: yeast display SC50

B1: E44M (designed binder)
chain: MTLQELLREEALRRAEAEAFRYALELLAEKFPEQKEYLLDLAEMIESQIRSLSGVDVEDVRKFLDKEWAWVKELLAEHPAELAEVEAARAARLAELRAEVEAKVAA
apparent Kd (screen): 1.69 nM

B2: I49D (designed binder)
chain: MTLQELLREEALRRAEAEAFRYALELLAEKFPEQKEYLLDLAEEIESQDRSLSGVDVEDVRKFLDKEWAWVKELLAEHPAELAEVEAARAARLAELRAEVEAKVAA
apparent Kd (screen): 12.5 nM

B3: F31M (designed binder)
chain: MTLQELLREEALRRAEAEAFRYALELLAEKMPEQKEYLLDLAEEIESQIRSLSGVDVEDVRKFLDKEWAWVKELLAEHPAELAEVEAARAARLAELRAEVEAKVAA
apparent Kd (screen): 0.539 nM

B4: A28D (designed binder)
chain: MTLQELLREEALRRAEAEAFRYALELLDEKFPEQKEYLLDLAEEIESQIRSLSGVDVEDVRKFLDKEWAWVKELLAEHPAELAEVEAARAARLAELRAEVEAKVAA
apparent Kd (screen): 18.3 nM

B5: E58N (designed binder)
chain: MTLQELLREEALRRAEAEAFRYALELLAEKFPEQKEYLLDLAEEIESQIRSLSGVDVNDVRKFLDKEWAWVKELLAEHPAELAEVEAARAARLAELRAEVEAKVAA
apparent Kd (screen): 0.49 nM

B6: Y22N (designed binder)
chain: MTLQELLREEALRRAEAEAFRNALELLAEKFPEQKEYLLDLAEEIESQIRSLSGVDVEDVRKFLDKEWAWVKELLAEHPAELAEVEAARAARLAELRAEVEAKVAA
apparent Kd (screen): 0.593 nM

B7: G54M (designed binder)
chain: MTLQELLREEALRRAEAEAFRYALELLAEKFPEQKEYLLDLAEEIESQIRSLSMVDVEDVRKFLDKEWAWVKELLAEHPAELAEVEAARAARLAELRAEVEAKVAA
apparent Kd (screen): 12.5 nM

B8: E9I (designed binder)
chain: MTLQELLRIEALRRAEAEAFRYALELLAEKFPEQKEYLLDLAEEIESQIRSLSGVDVEDVRKFLDKEWAWVKELLAEHPAELAEVEAARAARLAELRAEVEAKVAA
apparent Kd (screen): 0.79 nM

B9: E84L (designed binder)
chain: MTLQELLREEALRRAEAEAFRYALELLAEKFPEQKEYLLDLAEEIESQIRSLSGVDVEDVRKFLDKEWAWVKELLAEHPAELALVEAARAARLAELRAEVEAKVAA
apparent Kd (screen): 0.49 nM

B10: A11D (designed binder)
chain: MTLQELLREEDLRRAEAEAFRYALELLAEKFPEQKEYLLDLAEEIESQIRSLSGVDVEDVRKFLDKEWAWVKELLAEHPAELAEVEAARAARLAELRAEVEAKVAA
apparent Kd (screen): 0.593 nM

B11: A76E (designed binder)
chain: MTLQELLREEALRRAEAEAFRYALELLAEKFPEQKEYLLDLAEEIESQIRSLSGVDVEDVRKFLDKEWAWVKELLEEHPAELAEVEAARAARLAELRAEVEAKVAA
apparent Kd (screen): 0.593 nM

B12: V55A (designed binder)
chain: MTLQELLREEALRRAEAEAFRYALELLAEKFPEQKEYLLDLAEEIESQIRSLSGADVEDVRKFLDKEWAWVKELLAEHPAELAEVEAARAARLAELRAEVEAKVAA
apparent Kd (screen): 1.16 nM

B13: F63C (designed binder)
chain: MTLQELLREEALRRAEAEAFRYALELLAEKFPEQKEYLLDLAEEIESQIRSLSGVDVEDVRKCLDKEWAWVKELLAEHPAELAEVEAARAARLAELRAEVEAKVAA
apparent Kd (screen): 6.43 nM

B14: E86I (designed binder)
chain: MTLQELLREEALRRAEAEAFRYALELLAEKFPEQKEYLLDLAEEIESQIRSLSGVDVEDVRKFLDKEWAWVKELLAEHPAELAEVIAARAARLAELRAEVEAKVAA
apparent Kd (screen): 0.718 nM

B15: K66N (designed binder)
chain: MTLQELLREEALRRAEAEAFRYALELLAEKFPEQKEYLLDLAEEIESQIRSLSGVDVEDVRKFLDNEWAWVKELLAEHPAELAEVEAARAARLAELRAEVEAKVAA
apparent Kd (screen): 0.653 nM

B16: D59I (designed binder)
chain: MTLQELLREEALRRAEAEAFRYALELLAEKFPEQKEYLLDLAEEIESQIRSLSGVDVEIVRKFLDKEWAWVKELLAEHPAELAEVEAARAARLAELRAEVEAKVAA
apparent Kd (screen): 0.653 nM

B17: E16T (designed binder)
chain: MTLQELLREEALRRATAEAFRYALELLAEKFPEQKEYLLDLAEEIESQIRSLSGVDVEDVRKFLDKEWAWVKELLAEHPAELAEVEAARAARLAELRAEVEAKVAA
apparent Kd (screen): 0.539 nM

B18: L6T (designed binder)
chain: MTLQETLREEALRRAEAEAFRYALELLAEKFPEQKEYLLDLAEEIESQIRSLSGVDVEDVRKFLDKEWAWVKELLAEHPAELAEVEAARAARLAELRAEVEAKVAA
apparent Kd (screen): 10.4 nM

B19: E18T (designed binder)
chain: MTLQELLREEALRRAEATAFRYALELLAEKFPEQKEYLLDLAEEIESQIRSLSGVDVEDVRKFLDKEWAWVKELLAEHPAELAEVEAARAARLAELRAEVEAKVAA
apparent Kd (screen): 0.593 nM

B20: Y22C (designed binder)
chain: MTLQELLREEALRRAEAEAFRCALELLAEKFPEQKEYLLDLAEEIESQIRSLSGVDVEDVRKFLDKEWAWVKELLAEHPAELAEVEAARAARLAELRAEVEAKVAA
apparent Kd (screen): 0.446 nM

B21: F31P (designed binder)
chain: MTLQELLREEALRRAEAEAFRYALELLAEKPPEQKEYLLDLAEEIESQIRSLSGVDVEDVRKFLDKEWAWVKELLAEHPAELAEVEAARAARLAELRAEVEAKVAA
apparent Kd (screen): 7.78 nM

B22: T2P (designed binder)
chain: MPLQELLREEALRRAEAEAFRYALELLAEKFPEQKEYLLDLAEEIESQIRSLSGVDVEDVRKFLDKEWAWVKELLAEHPAELAEVEAARAARLAELRAEVEAKVAA
apparent Kd (screen): 0.718 nM

B23: V100E (designed binder)
chain: MTLQELLREEALRRAEAEAFRYALELLAEKFPEQKEYLLDLAEEIESQIRSLSGVDVEDVRKFLDKEWAWVKELLAEHPAELAEVEAARAARLAELRAEEEAKVAA
apparent Kd (screen): 0.539 nM

B24: L7P (designed binder)
chain: MTLQELPREEALRRAEAEAFRYALELLAEKFPEQKEYLLDLAEEIESQIRSLSGVDVEDVRKFLDKEWAWVKELLAEHPAELAEVEAARAARLAELRAEVEAKVAA
apparent Kd (screen): 0.79 nM

B25: Q34F (designed binder)
chain: MTLQELLREEALRRAEAEAFRYALELLAEKFPEFKEYLLDLAEEIESQIRSLSGVDVEDVRKFLDKEWAWVKELLAEHPAELAEVEAARAARLAELRAEVEAKVAA
apparent Kd (screen): 0.79 nM

B26: R14H (designed binder)
chain: MTLQELLREEALRHAEAEAFRYALELLAEKFPEQKEYLLDLAEEIESQIRSLSGVDVEDVRKFLDKEWAWVKELLAEHPAELAEVEAARAARLAELRAEVEAKVAA
apparent Kd (screen): 0.49 nM

B27: E46Q (designed binder)
chain: MTLQELLREEALRRAEAEAFRYALELLAEKFPEQKEYLLDLAEEIQSQIRSLSGVDVEDVRKFLDKEWAWVKELLAEHPAELAEVEAARAARLAELRAEVEAKVAA
apparent Kd (screen): 0.49 nM

B28: A94R (designed binder)
chain: MTLQELLREEALRRAEAEAFRYALELLAEKFPEQKEYLLDLAEEIESQIRSLSGVDVEDVRKFLDKEWAWVKELLAEHPAELAEVEAARAARLRELRAEVEAKVAA
apparent Kd (screen): 0.869 nM

B29: L12H (designed binder)
chain: MTLQELLREEAHRRAEAEAFRYALELLAEKFPEQKEYLLDLAEEIESQIRSLSGVDVEDVRKFLDKEWAWVKELLAEHPAELAEVEAARAARLAELRAEVEAKVAA
apparent Kd (screen): 0.956 nM

B30: E10T (designed binder)
chain: MTLQELLRETALRRAEAEAFRYALELLAEKFPEQKEYLLDLAEEIESQIRSLSGVDVEDVRKFLDKEWAWVKELLAEHPAELAEVEAARAARLAELRAEVEAKVAA
apparent Kd (screen): 5.31 nM

B31: R89Y (designed binder)
chain: MTLQELLREEALRRAEAEAFRYALELLAEKFPEQKEYLLDLAEEIESQIRSLSGVDVEDVRKFLDKEWAWVKELLAEHPAELAEVEAAYAARLAELRAEVEAKVAA
apparent Kd (screen): 0.539 nM

B32: D56F (designed binder)
chain: MTLQELLREEALRRAEAEAFRYALELLAEKFPEQKEYLLDLAEEIESQIRSLSGVFVEDVRKFLDKEWAWVKELLAEHPAELAEVEAARAARLAELRAEVEAKVAA
apparent Kd (screen): 2.73 nM

B33: A91G (designed binder)
chain: MTLQELLREEALRRAEAEAFRYALELLAEKFPEQKEYLLDLAEEIESQIRSLSGVDVEDVRKFLDKEWAWVKELLAEHPAELAEVEAARAGRLAELRAEVEAKVAA
apparent Kd (screen): 0.49 nM

B34: E25Q (designed binder)
chain: MTLQELLREEALRRAEAEAFRYALQLLAEKFPEQKEYLLDLAEEIESQIRSLSGVDVEDVRKFLDKEWAWVKELLAEHPAELAEVEAARAARLAELRAEVEAKVAA
apparent Kd (screen): 0.539 nM

B35: T2W (designed binder)
chain: MWLQELLREEALRRAEAEAFRYALELLAEKFPEQKEYLLDLAEEIESQIRSLSGVDVEDVRKFLDKEWAWVKELLAEHPAELAEVEAARAARLAELRAEVEAKVAA
apparent Kd (screen): 1.16 nM
